Results taken from patent CN111138537A (REYOUNG (SUZHOU) BIOPHARMACEUTICAL CO LTD, dated 2020).

Biological target: T1, 人血清白蛋白 (human, UniProt P02768 25-609)
T1 construct: also called HSA; human serum albumin
Assay: SPR (Biacore T200), HSA amine-coupled to CM5 chip, NB22 as analyte

B1: 单域抗体NB22 (VHH)
VHH: QVQLQESGGGSVQAGGSLRLSCAASAYTYSTTCMAWFRQAPGKEREKVATITTGGTYPYYADSVKGRFTISQDNAKNTVYLQMNSLKPEDTAMYYCAADASWGCRLSGSWSTVYNYWGQGTQVTVSS
notes: Camel (Bactrian) VHH from a phage display library; expressed in E. coli periplasm with a C-terminal 6x His tag and nickel-purified; also called 抗人血清白蛋白单域抗体
B1 was tested. Which Kd did it give?
Its Kd is 0.683 nM.
